Residue numbers refer to the chain shown, from its start. Where two headings read alike, the source gives them in different places. Blank lines part the entries; values can stand above or below the molecule they belong to.
Experiments:
[1] = molecular target: T1, recombinant ILT2 (human, UniProt Q8NHL6 24-461); test: binding ELISA, hILT2-Fc; positive control is GHI/75 by paragraph 227
T1 construct: also called LILRB1; LIR1

[2] = molecular target: T2, LILRA1 (UniProt O75019 17-461, limits assumed); test: binding ELISA, column hLILRA1-His, negative control
[3] = molecular target: T3, PIRB (UniProt P97484 25-642, limits assumed); test: binding ELISA, column PIRB, negative control
T3 sequence (looked up): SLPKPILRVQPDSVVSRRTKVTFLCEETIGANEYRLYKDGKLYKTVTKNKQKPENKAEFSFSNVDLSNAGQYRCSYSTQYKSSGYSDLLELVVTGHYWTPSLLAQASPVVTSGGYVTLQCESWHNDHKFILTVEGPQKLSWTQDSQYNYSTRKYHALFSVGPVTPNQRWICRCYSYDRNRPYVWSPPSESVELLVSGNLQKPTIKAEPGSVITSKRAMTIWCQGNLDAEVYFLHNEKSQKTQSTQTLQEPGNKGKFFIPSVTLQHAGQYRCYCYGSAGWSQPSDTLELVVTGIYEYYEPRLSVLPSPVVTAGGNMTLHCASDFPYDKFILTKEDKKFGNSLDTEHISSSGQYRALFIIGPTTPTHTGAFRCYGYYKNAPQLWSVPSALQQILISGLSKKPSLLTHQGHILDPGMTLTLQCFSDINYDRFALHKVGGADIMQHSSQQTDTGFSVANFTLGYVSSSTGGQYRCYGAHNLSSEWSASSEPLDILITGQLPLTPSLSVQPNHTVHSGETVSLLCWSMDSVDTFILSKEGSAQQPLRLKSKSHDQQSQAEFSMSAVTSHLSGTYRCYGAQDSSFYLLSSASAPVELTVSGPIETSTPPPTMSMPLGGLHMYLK

[4] = molecular target: T4, ILT6 (UniProt Q8N6C8 24-439); test: binding ELISA, column hILT6-His, negative control
[5] = molecular target: T1, recombinant ILT2; test: binding ELISA, hILT2-Fc, negative control
[6] = molecular target: T5, ILT2/CD3z chimera on BW5417.3 cells (human; mouse, UniProt P24161 31-164, limits assumed); test: flow cytometry titration on BW cells transfected with human ILT2, y axis FAB
T5 construct: domain: trans-membrane and cytoplasmic residues; Expressed on the surface of the mouse BW T cell line; also called BW-ILT2; BW/ILT2z

[7] = molecular target: T6, recombinant human ILT2-Fc conjugated with biotin (human, UniProt Q8NHL6 24-458, limits assumed, conjugated with biotin (sites not given)); test: flow cytometry blocking assay: ILT2-biotin binding to cells expressing HLA-G
T6 construct: It is written here as ILT2 then Fc; also called ILT2-biotin; biotinylated ILT2; not shown: Fc portion of human IgG1
Method: (§1) Flow cytometry blocking assay—Recombinant human ILT2 protein fused with the Fc portion of human IgG1 at the N terminal was conjugated with biotin (Innova bioscience). A total of 5×10⁵ A375/HLA-G1 cells were incubated in a volume of 100 μL in the presence of anti-ILT2 clone #1 or isotype matched control mAb and ILT2-Fc conjugated with biotin (10 μg/mL) for 30 minutes at room temperature. After several washing steps, streptavidin-PE was added at a final concentration of 0.2 μg/mL and incubated for 30 min on ice followed by FACS analysis.
(§2) The ability of the generated anti-ILT2 antibodies to block the interaction between HLA-G and ILT2 was tested using four different assays. First, a blocking flow cytometry assay was performed. HLA-G transfected A375 cells were incubated with biotinylated ILT2 in the presence of the antibodies of the invention and a positive control antibody. The commercially available anti-ILT2 antibody GHI/75 (BioLegend, cat #333704) was used as the positive control. The binding of ILT2-biotin to the cells was determined using Streptavidin-PE by flow cytometry analysis (FIG. 8A). The percent of blocking was determined by normalizing to a negative control (ILT2 binding in the presence of control IgG). […] The percentage of blocking was calculated at various concentrations of antibody (FIG. 8C).

[8] = molecular target: T6, recombinant human ILT2-Fc conjugated …; test: as above; remark: listed apart in the source
Method: as §1, §2

[9] = molecular target: T4, ILT6; test: binding ELISA, column hILT6-His
[10] = molecular target: T3, PIRB; test: binding ELISA, column PIRB
[11] = molecular target: T1, recombinant ILT2; test: competition ELISA on ILT2: biotinylated 15G8 at 1 µg/ml as the labelled competitor, unbiotinylated 15G8 varied
Method: This raises the question of the epitope of GHI/75 and other commercial antibodies. Though the epitopes of these antibodies are not published a competition ELISA assay was performed to see if 15G8 and GHI/75 and HP-F1 could bind ILT2 at the same time. Biotinylated 15G8 antibody was used at a constant concentration (1 μg/ml) in an ILT2 binding ELISA. GHI/75 and HP-F1 were added in increasing concentrations and competition was assessed. Regardless of the amount of these two antibodies added, neither one competed with 15G8 for binding to ILT2 (FIG. 19). In contrast, when naked (unbiotinylated) 15G8 was added, the binding decreased in a dose dependent manner as expected. […] This makes 15G8 the first anti-ILT2 antibody ever identified to bind this epitope, to specifically block interaction with B2M and to be able to simultaneously activate/recruit T cells, NK cells and macrophages/dendritic cells against cancer.

[12] = molecular target: T2, LILRA1; test: binding ELISA, column hLILRA1-His

T6 sequence (Q8NHL6 24-458 limits assumed): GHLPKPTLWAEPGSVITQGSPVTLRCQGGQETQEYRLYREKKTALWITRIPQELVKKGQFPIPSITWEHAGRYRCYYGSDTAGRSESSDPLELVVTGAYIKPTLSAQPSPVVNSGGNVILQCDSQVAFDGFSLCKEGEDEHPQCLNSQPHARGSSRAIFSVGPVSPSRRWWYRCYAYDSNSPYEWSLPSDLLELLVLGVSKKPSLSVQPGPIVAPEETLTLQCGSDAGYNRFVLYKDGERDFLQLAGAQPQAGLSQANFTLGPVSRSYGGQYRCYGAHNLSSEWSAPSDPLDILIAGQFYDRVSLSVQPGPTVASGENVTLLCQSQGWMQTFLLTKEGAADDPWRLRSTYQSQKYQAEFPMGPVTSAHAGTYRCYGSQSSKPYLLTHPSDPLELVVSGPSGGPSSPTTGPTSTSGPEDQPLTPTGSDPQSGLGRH
T1 sequence (Q8NHL6 24-461 limits assumed): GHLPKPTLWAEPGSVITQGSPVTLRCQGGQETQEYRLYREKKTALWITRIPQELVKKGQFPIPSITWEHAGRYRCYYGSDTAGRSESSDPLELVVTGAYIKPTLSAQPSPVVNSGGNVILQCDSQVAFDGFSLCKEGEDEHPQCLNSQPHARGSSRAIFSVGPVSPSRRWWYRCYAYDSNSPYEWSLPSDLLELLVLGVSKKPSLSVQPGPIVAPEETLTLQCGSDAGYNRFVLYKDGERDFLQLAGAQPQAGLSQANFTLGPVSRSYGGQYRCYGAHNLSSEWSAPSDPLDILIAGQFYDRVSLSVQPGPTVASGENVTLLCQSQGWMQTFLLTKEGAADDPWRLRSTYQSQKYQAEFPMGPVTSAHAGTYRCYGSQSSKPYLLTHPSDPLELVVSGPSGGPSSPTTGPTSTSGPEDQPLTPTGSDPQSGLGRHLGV
T2 sequence (O75019 17-461 limits assumed): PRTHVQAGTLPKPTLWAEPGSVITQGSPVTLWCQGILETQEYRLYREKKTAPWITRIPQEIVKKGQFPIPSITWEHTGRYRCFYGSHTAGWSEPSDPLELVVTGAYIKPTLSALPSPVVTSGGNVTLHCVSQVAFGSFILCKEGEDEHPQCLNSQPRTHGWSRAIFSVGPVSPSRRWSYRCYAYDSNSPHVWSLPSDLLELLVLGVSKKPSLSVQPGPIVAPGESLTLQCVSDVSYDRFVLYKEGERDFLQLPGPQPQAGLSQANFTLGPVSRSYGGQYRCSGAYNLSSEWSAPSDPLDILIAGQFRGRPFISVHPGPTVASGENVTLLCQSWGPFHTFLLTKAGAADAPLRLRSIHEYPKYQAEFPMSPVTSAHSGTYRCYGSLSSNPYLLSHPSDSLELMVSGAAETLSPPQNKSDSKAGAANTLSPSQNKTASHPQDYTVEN
T4 sequence (Q8N6C8 24-439 limits assumed): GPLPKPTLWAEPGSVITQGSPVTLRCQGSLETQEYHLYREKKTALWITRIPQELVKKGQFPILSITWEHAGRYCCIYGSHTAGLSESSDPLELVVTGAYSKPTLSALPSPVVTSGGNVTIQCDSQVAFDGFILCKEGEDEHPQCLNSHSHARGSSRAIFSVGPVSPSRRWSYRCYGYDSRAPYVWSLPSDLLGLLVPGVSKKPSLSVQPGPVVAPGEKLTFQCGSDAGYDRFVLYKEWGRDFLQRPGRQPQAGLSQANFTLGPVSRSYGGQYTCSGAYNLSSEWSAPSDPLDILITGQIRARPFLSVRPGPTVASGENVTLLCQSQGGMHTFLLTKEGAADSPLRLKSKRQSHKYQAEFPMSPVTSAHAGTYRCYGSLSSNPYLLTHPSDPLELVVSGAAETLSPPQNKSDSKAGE
T5 sequence (P24161 other isoform, or with tags, fused parts or gaps mutant limits assumed): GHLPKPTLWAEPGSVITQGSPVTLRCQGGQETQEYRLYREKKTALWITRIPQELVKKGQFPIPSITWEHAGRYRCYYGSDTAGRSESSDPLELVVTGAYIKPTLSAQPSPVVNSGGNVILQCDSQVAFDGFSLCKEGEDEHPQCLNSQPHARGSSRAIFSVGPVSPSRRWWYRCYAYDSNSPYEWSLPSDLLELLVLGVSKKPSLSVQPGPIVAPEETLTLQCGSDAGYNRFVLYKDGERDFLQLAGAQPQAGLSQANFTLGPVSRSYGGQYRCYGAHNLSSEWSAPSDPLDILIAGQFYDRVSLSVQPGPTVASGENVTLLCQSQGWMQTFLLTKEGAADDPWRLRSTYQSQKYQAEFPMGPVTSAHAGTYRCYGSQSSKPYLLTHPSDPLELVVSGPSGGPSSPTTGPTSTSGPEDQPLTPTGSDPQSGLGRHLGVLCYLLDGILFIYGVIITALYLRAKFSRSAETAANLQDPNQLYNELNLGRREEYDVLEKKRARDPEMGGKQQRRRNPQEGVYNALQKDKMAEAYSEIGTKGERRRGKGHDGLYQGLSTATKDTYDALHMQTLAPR

Molecule: GHI/75 commercial mouse anti-human ILT2 antibody (BioLegend, Cat. No. 333704)
ELISA (OD) [1]: 2.45 OD

Molecule: Negative
ELISA (OD) [2]: 0.13 OD
ELISA (OD) [3]: 0.0575 OD
ELISA (OD) [4]: 0.071 OD
ELISA (OD) [5]: 0.05 OD

Now from value to molecule:

EC50 (read off the curve) [6]: ~0.5 µg/mL
IC50 (read off the curve) [7]: ~0.2 µg/mL
B1: chimeric 15G8 (antibody, V domains shown)
VH: DVQLQGSGPGLVKPSQSLSLTCSVTGYSITSGYYWNWIRQFPGNKLEWMGYISYDGSNNYNPSLKNRISITRDTSKNQFFLKLNSVTSEDTATYYCAHGYSYYYAMDCWGQGTSVTVSS
VL: DIQMTQTTSSLSASLGDRVTISCRTSQDISNYLNWYQQKPDGTVKLLISYTSRLHSGVPSRFSGSGSGTDYSLTISNLEQEDIATYFCQQGNTLPTFGSGTKLEIK
notes: Constant regions not described; also called chimeric murine 15G8

EC50 (read off the curve) [6]: ~0.5 µg/mL
IC50 (read off the curve) [8]: ~0.3 µg/mL
IC50 (read off the curve) [7]: ~0.2 µg/mL
B2: humanized 15G8 (alanine variant) (antibody, V domains shown)
VH: B1 VH with Q16E, S17T, N44K, S69T, T71S, F80S, S88A, E89A, C108A
VL: DIQMTQSPSSLSASVGDRVTITCRTSQDISNYLNWYQQKPGKAVKLLISYTSRLHSGVPSRFSGSGSGTDYTLTISSLQPEDFATYYCQQGNTLPTFGQGTKLEIK
notes: also called 15G8 humanized antibody; humanized antibody 15G8

binding result [9]: no binding
binding result [10]: no binding
IC50 (read off the curve) [11]: ~3 µg/mL
binding result [12]: no binding
B3: 15G8 (original hybridoma-derived murine anti-ILT2 antibody) (antibody, V domains shown)
VH: B1 VH
VL: B1 VL
notes: also called 15G8 antibody

Source: patent US20210277112A1 (BIOND BIOLOGICS, published 2021)
